Source: patent US20160320391A1 (Genentech, published 2016)

Tests used:
[1] = target: T1, purified recombinant soluble hamster (Cricetulus griseus) phospholipase B-like 2 (PLBL2), his-tagged (hamster (Cricetulus griseus)); assay: sandwich ELISA, biotinylated 15G11 as detection antibody on PLBL2 standard captured by coated 19C10, streptavidin-HRP, OD 450 nm; the value describes the whole sandwich
T1 construct: Transiently expressed in CHO-K1 cells and purified from the supernatant; In the rabbit serum assay the protein was biotinylated; also called PLB2; PLBD2; not shown: histidine (his) tag added
T1 chain: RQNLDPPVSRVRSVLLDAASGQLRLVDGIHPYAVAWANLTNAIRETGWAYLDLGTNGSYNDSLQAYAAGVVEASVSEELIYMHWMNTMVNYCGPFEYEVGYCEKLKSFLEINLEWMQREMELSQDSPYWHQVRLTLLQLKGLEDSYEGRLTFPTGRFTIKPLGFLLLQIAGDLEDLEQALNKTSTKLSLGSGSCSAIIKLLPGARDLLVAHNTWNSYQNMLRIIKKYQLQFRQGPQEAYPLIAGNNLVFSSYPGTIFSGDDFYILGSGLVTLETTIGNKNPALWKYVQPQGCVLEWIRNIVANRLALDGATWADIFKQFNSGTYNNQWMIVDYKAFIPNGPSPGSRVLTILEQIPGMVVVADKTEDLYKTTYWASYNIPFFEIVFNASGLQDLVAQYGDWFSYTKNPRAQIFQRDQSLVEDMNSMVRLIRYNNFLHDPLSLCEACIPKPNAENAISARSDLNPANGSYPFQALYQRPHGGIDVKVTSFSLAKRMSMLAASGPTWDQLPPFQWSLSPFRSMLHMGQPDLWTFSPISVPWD
Experimental: (§1) An ELISA assay to detect and quantify the CHOP impurity, PLBL2, in recombinant polypeptide samples, such as recombinant antibody or immunoadhesin preparations, was developed. The procedure is as follows. Murine monoclonal antibody 19C10 was coated onto a half area 96-well microtiter plate at a concentration of 0.5 μg/mL in carbonate buffer (0.05M sodium carbonate, pH 9.6), overnight at 2-8° C. After coating, the plate was blocked with Blocking Buffer (0.15M NaCl, 0.1M sodium phosphate, 0.1% fish gelatin, 0.05% polysorbate 20, 0.05% Proclin® 300 [Sigma-Aldrich]; also referred to as Assay Diluent) to prevent non-specific sticking of proteins. […]
(§2) After a 2 hr. incubation step with biotinylated 15G11 at room temperature, Streptavidin HRP (1:200,000 dilution in Assay Diluent) was added to the microtiter plate wells. After a final wash step with Wash Buffer (described above), color was developed (for PLBL2 quantification) by adding a solution of TMB (50 μl/well) (SUREBLUE RESERVE™ from KPL, Kirkegaard & Perry Laboratories, Inc., Gaithersburg, Md., cat no. 53-00-03) followed by incubation at room temperature for 10-20 minutes. […]

[2] = target: T1, purified recombinant soluble hamster …; assay: sandwich ELISA, 19C10 coated as capture antibody, PLBL2 standard titrated, detection with biotinylated 15G11 and streptavidin-HRP, OD 450 nm; the value describes the whole sandwich
Experimental: as §1, §2

B1: 15G11 anti-PLBL2 murine monoclonal antibody conjugated to biotin (antibody, mouse IgG1, kappa, V domains shown)
VH: EVKLEESGGGLVQPGGSTKLSCAASGFTFSDAWMDWVRQCPEKGLEWVAEISSKANNRATYYAESVKGRFTISRDDSKSCVYLQMNSLRAEDTGIYYCTRRGYTMDYWGQGTSVTVSS
VL: DIVMTQSQKFMSTSVGDRVSVTCKASQNVDTNVAWYQQKPGQSPKALIFSASYRFSGVPDRFTGSGSGTDFTLTISNVQSEDLAEYFCQQYNNFPFTFGSGTKLELKR
modifications: biotin conjugated with E-Z Link NHS-Biotin; sites not stated
notes: Mouse IgG1, kappa, biotinylated; Used as the detection antibody of the monoclonal PLBL2 ELISA; also called biotinylated 15G11; detection antibody
With B1 the “EC50 (read off the curve)” value [1] was about 10 ng/mL.

B2: 19C10 (recombinant murine monoclonal anti-hamster PLBL2 antibody) (antibody, mouse IgG1, kappa, V domains shown)
VH: EVQLQESGPCLVKPSQTLSLTCSVTGDSITSGYWNWIRKFPGNKLESMGYISYSGSTYYNPSLKSRISITRDTSKNQYYLQLNSVTTEDTATYYCARIASWITTYFDYWGQGTTLTVSS
VL: DIVMTQSPAILSVSPGERVSFSCRASQSIGTSIHWYQQRRNGSPRLLIKYASESISGIPSRFSGSGSGTDFILSINSVESEDIADYYCQQSNSWPYTFGGGTKLELKR
notes: Mouse IgG1, kappa, expressed transiently in 293 or CHO cells; also called capture antibody; coat antibody
B2 was tested, and the “EC50 (read off the curve)” value [2] was about 10 ng/mL.
